Legend:
HUVEC spheroids = assay: Spheroid-based cellular angiogenesis assay; type: cell-based, human; conditions: 25 ng/ml VEGF-A, 24 h
Protocol: AXL is a key regulator of multiple angiogenic behaviors including endothelial cell migration, proliferation, and tube formation in vitro (Holland et al., Cancer Res: 65, 9294-9303, 2005). […] The experiments were pursued in modification of the originally published protocol (Korff and Augustin: J Cell Sci 112: 3249-58, 1999). In brief, spheroids were prepared as described (Korff and Augustin: J Cell Biol 143: 1341-52, 1998) by pipetting 500 human umbilical vein endothelial cells (HUVEC) in a hanging drop on plastic dishes to allow over night spheroid aggregation. 50 HUVEC spheroids were then seeded in 0.9 ml of a collagen solution (2 mg/ml) and pipetted into individual wells of a 24 well plate to allow polymerization. […] Plates were incubated at 37° C. for 24 hours and fixed by adding 4% paraformaldehyde. Sprouting intensity of HUVEC spheroids was quantified by an image analysis system that determines the cumulative sprout length per spheroid using an inverted microscope and the digital imaging software Analysis 3.2 (Soft imaging system, Munster, Germany). The mean of the cumulative sprout length of 10 randomly selected spheroids was analyzed as an individual data point.

AXL = target: T1, AXL (Homo sapiens, UniProt P30530); assay: AXL receptor tyrosine phosphorylation ELISA; type: cell-based; set-up: expressed in transfected cells; host or cells: NIH3T3-AXL cl.7 (pLXSN-hAXL) and NCI-H292 lung cancer cells (endogenous AXL); conditions: 10 μg/ml antibody, 400 ng/ml Gas6; NIH3T3-AXL cl.7 fibroblasts and NCI-H292 lung cancer cells
T1 sequence (P30530 26-894): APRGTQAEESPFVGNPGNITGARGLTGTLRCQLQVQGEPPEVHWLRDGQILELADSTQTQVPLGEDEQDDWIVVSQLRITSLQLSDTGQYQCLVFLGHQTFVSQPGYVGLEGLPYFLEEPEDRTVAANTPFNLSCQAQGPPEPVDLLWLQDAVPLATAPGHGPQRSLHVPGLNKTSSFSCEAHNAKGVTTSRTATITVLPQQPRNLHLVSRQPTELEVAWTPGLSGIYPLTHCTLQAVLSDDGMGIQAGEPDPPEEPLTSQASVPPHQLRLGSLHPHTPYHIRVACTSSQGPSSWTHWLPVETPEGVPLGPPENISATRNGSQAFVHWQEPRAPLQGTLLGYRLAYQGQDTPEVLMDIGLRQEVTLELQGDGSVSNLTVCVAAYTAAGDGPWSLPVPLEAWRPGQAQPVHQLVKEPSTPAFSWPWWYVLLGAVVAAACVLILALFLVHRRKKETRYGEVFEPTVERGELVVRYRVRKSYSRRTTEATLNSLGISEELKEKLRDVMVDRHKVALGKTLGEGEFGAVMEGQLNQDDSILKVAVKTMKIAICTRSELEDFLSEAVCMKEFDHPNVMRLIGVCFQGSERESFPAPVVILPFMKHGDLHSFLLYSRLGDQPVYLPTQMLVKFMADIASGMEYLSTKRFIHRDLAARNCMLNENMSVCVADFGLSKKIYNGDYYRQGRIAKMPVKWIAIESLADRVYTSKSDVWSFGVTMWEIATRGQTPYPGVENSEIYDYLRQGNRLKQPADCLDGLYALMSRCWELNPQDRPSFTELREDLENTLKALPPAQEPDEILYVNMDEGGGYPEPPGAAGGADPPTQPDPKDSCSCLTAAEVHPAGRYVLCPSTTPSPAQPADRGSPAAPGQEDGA
Protocol: ELISA experiments were performed in order to investigate whether the rat anti-AXL antibodies of the invention are able to block ligand Gash-mediated activation of AXL. Gas6-mediated AXL activation was detected by increased receptor tyrosine phosphorylation. In brief, on day 1, 3×10^4 cells per well were seeded in normal growth medium in flat-bottom 96 well plates. The next day, growth medium was replaced by serum-free medium to starve cells over night for 24 h. Also over night, black Maxi-Sorp 96 well plates (Nunc) were coated with mouse anti-phospho-tyrosine antibody 4G10 at 2 μg/ml PBS and 4° C. On day 3, the 4G10 antibody solution was removed and Maxi-Sorp wells were blocked with PBS, 0.5% BSA for at lest 4 h at room temperature. […] Medium was then flicked out and cells were lysed in lysis buffer (50 mM HEPES, pH 7.5, 150 mM NaCl, 1 mM EDTA, 10% glycerine, and 1% Triton X-100) supplemented with phosphatase and protease inhibitors (10 mM Na4P2O7, 1 mM phenylmethylsulfonyl fluoride, 1 mM orthovanadate, 1 mM NaF, and 0.5% aprotinin) for 30 min on ice. […] Using a Victor plate reader (Perkin Elmer), the fluorescence of each well was collected at an excitation wavelength of 430 nm and an emission wavelength of 580 nm.

B1: 11B7: antagonistic rat anti-AXL monoclonal antibody, rat IgG1 (antibody, V domains shown)
VL: DIQMTQAPSSLPASLGDRVTITCRASQDIGNYLRWFQQKPGKSPRLMISGATNLAAGVPSRFSGSRSGSDYSLTISSLESEDMADYYCLQSKESPWTFGGGTKLELK
VH: EVQLQESGPGLVKPSQSLSLTCSVTGYSITSNYWGWIRKFPGDKMEWMGYITYSGSTSYNPSLKSRISITRDTSKNQFFLQLNSVTSEDTATYYCAITTFYYWGQGVMVTVSS
HUVEC sprouting at the highest antibody concentration (HUVEC spheroids): reduced HUVEC sprouting to basal levels
ligand-mediated AXL activation (phosphorylation) (AXL): able to block or reduce ligand-mediated AXL activation

Source: US8933202B2, “AXL antibodies” (U3 Pharma GmbH, priority 2007, dated 2015)
